Laboratory results: patent US20230149532A1
Like-named read-outs stand apart in the source and are kept apart here.

Legend:
[1] = target: ACE-2 receptor on Vero e6 cells (African green monkey (Vero e6 cells)); assay: two-color confocal microscopy, co-localization on Vero e6 cells (n=10 analyses)
[2] = target: ACE-2 receptor on Vero e6 cells (African green monkey (Vero e6 cells))

Row | Substance | fold increase over the non-specific H7 control [1] [fold] | particles per field (particles per field) [1] | particles per field (particles per field) [2]
1 | angiotensin II (from UniProt P01019 25-32) (peptide) | 2.79 | 452 | 
2 | plant-produced recombinant H7 strain influenza HA protein |  |  | 122
